Measured values taken from patent publication US20250250355A1 (BIOSION, published 2025).

T1: cynomolgus SIRPα-his protein (cynomolgus)
T1 construct: also called Cyno SIRPα-his; monkey SIRPα
T1 chain: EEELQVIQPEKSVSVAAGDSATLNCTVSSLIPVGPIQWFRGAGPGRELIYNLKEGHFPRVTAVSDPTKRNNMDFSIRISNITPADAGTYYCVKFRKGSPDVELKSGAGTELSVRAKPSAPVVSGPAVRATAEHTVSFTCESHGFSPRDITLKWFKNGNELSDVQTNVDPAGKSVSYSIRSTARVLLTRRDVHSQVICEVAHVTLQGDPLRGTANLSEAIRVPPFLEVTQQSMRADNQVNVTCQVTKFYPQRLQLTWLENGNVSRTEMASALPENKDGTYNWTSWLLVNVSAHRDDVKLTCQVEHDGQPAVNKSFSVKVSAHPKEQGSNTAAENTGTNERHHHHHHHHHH

T2: mouse SIRPα-his (mouse, UniProt P97797 35-363, limits assumed)
T2 chain: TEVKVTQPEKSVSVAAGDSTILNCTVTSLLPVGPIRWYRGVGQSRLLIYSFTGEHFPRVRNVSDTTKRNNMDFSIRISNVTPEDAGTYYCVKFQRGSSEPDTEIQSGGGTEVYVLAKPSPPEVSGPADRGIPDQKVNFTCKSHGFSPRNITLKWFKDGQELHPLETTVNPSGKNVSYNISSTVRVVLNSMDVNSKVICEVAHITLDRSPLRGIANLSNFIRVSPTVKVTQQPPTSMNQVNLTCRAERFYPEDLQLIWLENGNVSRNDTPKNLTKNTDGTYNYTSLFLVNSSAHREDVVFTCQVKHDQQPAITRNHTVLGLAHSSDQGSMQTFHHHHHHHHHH


Key:
[1] = molecular target: T1, cynomolgus SIRPα-his protein; assay: indirect ELISA on coated cynomolgus SIRPα-his, OD(450-630); curve not visible in the scan
[2] = molecular target: human SIRPα-isoform 2-his protein (human); assay: indirect ELISA on coated human SIRPα-isoform 2-his, OD(450-630); curve not visible in the scan
[3] = molecular target: T3, full length human SIRPγ endogenously expressed on Jurkat cells (human, UniProt Q9P1W8 29-387); assay: cell based binding FACS on Jurkat cells (endogenous human SIRPγ), MFI; curve not separable in the scan; paragraph 186 says no binding
T3 construct: whole, on cells; also called human SIRPγ expressed on Jurkat cells

[4] = molecular target: T4, recombinant human SIRPα-Fc protein (human, biotin-labeled (sites not given)); assay: capture ELISA, antibody captured on anti-mouse IgG F(ab')2, biotin-labeled human SIRPα-Fc in solution, OD(450-630); curve not visible in the scan
T4 construct: also called biotin-labeled human SIRPα-Fc protein

[5] = molecular target: T5, full length human SIRPα on cell membranes (HEK293-SIRPα cells; 293F-SIRPα cells) (human, UniProt P78324 31-504); assay: cell based binding FACS on HEK293-SIRPα cells, MFI; curve not visible in the scan
T5 construct: whole, on cells; also called cell surface human SIRPα; cell surface SIRPα

[6] = molecular target: T5, full length human SIRPα on cell …; assay: cell based blocking FACS on 293F-SIRPα cells; blocked ligand: biotin-labeled human CD47-Fc, MFI; curve only in faint traces
[7] = molecular target: T6, human SIRPα-his protein (human, UniProt P78324 31-370); assay: competitive ELISA on coated human SIRPα-his; blocked ligand: biotin-labeled human CD47-his, OD(450-630); curve not visible in the scan
[8] = molecular target: T7, full length human SIRPβ on cell membranes (HEK293-SIRPβ cells; 293F cells expressing human SIRPβ) (human, UniProt O00241 30-398); assay: cell based binding FACS on HEK293-SIRPβ cells, MFI; curve not visible in the scan
T7 construct: whole, on cells; also called cell surface human SIRPβ

[9] = molecular target: T5, full length human SIRPα on cell …; assay: cell based binding FACS on 293F cells expressing human SIRPα, MFI
[10] = molecular target: T3, full length human SIRPγ endogenously …; assay: cell based binding FACS on Jurkat cells (endogenous human SIRPγ), MFI; curve flat at MFI about 35 up to about 13 nM, rises to about 115 only at the last point (about 67 nM); paragraph 213 says no binding
[11] = molecular target: T5, full length human SIRPα on cell …; assay: cell based blocking FACS on 293F-SIRPα cells; blocked ligand: human CD47 protein (CD47-Fc), MFI
[12] = molecular target: T6, human SIRPα-his protein; assay: SPR (Biacore T200); antibody captured on Protein A chip, human SIRPα-his flowed from 200 nM; 1:1 Langmuir fit
[13] = molecular target: T8, human FcRn protein (Cat #FCM-H5286, Acro biosystems Inc.) (human, UniProt P55899 24-297; P61769 21-119); assay: SPR (Biacore); human FcRn covalently linked to CM5 chip, antibody flowed from 62.5 µg/ml; pH 7.4
[14] = molecular target: T7, full length human SIRPβ on cell …; assay: cell based binding FACS on 293F cells expressing human SIRPβ, MFI
[15] = molecular target: human SIRPα-V8-his protein (human, UniProt P78324 31-370, limits assumed); assay: indirect ELISA on coated human SIRPα-V8-his, OD(450-630)
[16] = molecular target: human SIRPγ-his protein (human, UniProt Q9P1W8 29-360, limits assumed); assay: SPR (Biacore T200), antibody captured on Protein A chip, human SIRPγ-his flowed
[17] = molecular target: T2, mouse SIRPα-his; assay: indirect ELISA on coated mouse SIRPα-his, OD(450-630)
[18] = molecular target: human SIRPα-isoform 2-his protein (human); assay: indirect ELISA on coated human SIRPα-isoform 2-his, OD(450-630)
[19] = molecular target: human SIRPα protein (soluble, used on 293F-CD47 cells) (human, UniProt P78324 31-370, limits assumed); assay: cell based blocking FACS on 293F-CD47 cells; soluble human SIRPα protein blocked from binding cell surface human CD47, MFI
[20] = molecular target: T1, cynomolgus SIRPα-his protein; assay: indirect ELISA on coated cynomolgus SIRPα-his, OD(450-630); curve flat at the baseline (see non_binding)
[21] = molecular target: human SIRPβ-his protein (human, UniProt O00241 30-371); assay: SPR (Biacore T200); antibody captured on Protein A chip, human SIRPβ-his flowed from 200 nM; 1:1 Langmuir fit
[22] = molecular target: T8, human FcRn protein (Cat #FCM-H5286, …); assay: SPR (Biacore); human FcRn covalently linked to CM5 chip, antibody flowed from 62.5 µg/ml; pH 6.0
[23] = molecular target: T3, full length human SIRPγ endogenously …; assay: cell based binding FACS on Jurkat cells (endogenous human SIRPγ), MFI; curve flat at MFI about 35 up to about 13 nM, rises to about 185 only at the last point (about 67 nM); paragraph 213 says no binding
[24] = molecular target: T8, human FcRn protein (Cat #FCM-H5286, …); assay: SPR (Biacore); human FcRn covalently linked to CM5 chip, antibody flowed from 62.5 µg/ml; pH 6.0; pH 6.0

Chain of human SIRPβ-his protein (O00241 other isoform, or with tags, fused parts or gaps limits assumed): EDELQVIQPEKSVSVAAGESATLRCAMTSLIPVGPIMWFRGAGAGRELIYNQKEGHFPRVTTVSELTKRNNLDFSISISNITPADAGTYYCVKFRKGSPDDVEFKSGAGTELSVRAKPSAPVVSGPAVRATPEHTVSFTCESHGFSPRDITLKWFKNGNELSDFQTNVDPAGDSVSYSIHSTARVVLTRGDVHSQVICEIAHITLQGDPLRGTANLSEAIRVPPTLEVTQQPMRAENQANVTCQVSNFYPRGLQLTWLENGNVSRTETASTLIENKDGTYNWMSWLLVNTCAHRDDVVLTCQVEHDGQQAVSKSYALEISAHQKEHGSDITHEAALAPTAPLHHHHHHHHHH
T3 sequence (Q9P1W8 29-387): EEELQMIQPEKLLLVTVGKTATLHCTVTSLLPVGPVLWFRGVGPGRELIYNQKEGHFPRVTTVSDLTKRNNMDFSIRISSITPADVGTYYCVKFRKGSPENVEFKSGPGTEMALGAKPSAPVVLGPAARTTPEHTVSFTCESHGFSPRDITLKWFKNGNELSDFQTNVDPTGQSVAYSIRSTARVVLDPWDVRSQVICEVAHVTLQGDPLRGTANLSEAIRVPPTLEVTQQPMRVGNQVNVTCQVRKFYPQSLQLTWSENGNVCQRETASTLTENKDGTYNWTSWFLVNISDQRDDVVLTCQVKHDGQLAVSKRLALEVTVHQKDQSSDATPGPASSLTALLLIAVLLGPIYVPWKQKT
T6 sequence (P78324 other isoform, or with tags, fused parts or gaps limits assumed): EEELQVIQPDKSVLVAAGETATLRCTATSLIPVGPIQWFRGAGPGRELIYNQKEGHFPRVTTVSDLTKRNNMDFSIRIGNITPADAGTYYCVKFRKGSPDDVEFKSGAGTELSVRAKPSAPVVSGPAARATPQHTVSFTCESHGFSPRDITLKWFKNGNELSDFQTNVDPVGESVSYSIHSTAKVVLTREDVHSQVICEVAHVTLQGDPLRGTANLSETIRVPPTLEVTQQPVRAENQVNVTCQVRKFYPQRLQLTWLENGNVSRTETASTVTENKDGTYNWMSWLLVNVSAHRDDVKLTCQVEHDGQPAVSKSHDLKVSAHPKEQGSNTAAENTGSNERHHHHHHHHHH
T5 sequence (P78324 31-504): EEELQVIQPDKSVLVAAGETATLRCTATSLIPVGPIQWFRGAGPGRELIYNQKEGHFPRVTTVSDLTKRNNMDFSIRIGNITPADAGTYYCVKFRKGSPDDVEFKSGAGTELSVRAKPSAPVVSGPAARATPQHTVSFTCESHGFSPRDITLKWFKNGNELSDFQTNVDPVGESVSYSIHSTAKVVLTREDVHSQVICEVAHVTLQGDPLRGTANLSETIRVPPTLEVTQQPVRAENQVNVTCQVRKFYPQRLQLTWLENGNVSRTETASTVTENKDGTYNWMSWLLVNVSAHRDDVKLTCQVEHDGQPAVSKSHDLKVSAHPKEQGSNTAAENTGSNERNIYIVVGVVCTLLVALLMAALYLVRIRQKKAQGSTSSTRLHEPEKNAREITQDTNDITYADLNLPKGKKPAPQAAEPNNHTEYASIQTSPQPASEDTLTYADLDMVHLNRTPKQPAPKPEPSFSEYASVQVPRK
Chain of human SIRPα-isoform 2-his protein (human) (chain, as listed by the source limits assumed): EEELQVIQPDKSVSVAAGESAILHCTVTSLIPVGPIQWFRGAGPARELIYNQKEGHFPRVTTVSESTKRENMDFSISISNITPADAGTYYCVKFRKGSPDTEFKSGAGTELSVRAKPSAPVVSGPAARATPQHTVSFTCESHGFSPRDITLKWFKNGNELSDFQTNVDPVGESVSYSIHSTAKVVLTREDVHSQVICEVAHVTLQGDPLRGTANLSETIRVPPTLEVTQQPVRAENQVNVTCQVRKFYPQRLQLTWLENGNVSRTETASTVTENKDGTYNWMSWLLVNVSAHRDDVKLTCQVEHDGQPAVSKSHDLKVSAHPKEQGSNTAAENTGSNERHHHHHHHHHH
T7 sequence (O00241 30-398): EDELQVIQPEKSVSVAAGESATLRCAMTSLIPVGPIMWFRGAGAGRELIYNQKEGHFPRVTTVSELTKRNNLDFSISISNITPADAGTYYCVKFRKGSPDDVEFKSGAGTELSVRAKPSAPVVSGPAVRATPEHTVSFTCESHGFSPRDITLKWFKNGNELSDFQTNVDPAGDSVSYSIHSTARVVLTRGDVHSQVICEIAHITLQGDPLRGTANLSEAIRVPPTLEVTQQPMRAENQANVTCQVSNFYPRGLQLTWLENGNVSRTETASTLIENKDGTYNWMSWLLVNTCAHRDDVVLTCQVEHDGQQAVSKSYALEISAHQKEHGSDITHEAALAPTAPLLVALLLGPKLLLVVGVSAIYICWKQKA
Chain of human SIRPα-V8-his protein (P78324 other isoform, or with tags, fused parts or gaps limits assumed): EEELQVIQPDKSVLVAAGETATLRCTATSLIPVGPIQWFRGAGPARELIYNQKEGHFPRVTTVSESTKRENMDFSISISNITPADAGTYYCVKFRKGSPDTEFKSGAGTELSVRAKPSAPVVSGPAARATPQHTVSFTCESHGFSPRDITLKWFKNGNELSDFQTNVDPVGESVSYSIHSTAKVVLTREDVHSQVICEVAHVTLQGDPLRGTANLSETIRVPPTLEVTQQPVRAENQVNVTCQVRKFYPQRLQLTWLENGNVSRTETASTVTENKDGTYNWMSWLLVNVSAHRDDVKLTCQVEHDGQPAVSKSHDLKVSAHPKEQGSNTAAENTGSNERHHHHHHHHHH
Chain of human SIRPγ-his protein (Q9P1W8 29-360 limits assumed): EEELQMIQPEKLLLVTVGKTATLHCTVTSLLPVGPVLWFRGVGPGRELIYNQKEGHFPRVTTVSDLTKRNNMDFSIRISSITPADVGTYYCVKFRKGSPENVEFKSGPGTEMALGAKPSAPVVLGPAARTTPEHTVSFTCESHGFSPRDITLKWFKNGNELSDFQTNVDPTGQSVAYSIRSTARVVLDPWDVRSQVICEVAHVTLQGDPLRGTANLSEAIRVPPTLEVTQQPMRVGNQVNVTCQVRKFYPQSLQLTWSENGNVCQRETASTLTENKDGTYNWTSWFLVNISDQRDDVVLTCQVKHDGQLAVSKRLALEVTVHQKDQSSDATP
Chain of human SIRPα protein (soluble, used on 293F-CD47 cells) (P78324 31-370 limits assumed): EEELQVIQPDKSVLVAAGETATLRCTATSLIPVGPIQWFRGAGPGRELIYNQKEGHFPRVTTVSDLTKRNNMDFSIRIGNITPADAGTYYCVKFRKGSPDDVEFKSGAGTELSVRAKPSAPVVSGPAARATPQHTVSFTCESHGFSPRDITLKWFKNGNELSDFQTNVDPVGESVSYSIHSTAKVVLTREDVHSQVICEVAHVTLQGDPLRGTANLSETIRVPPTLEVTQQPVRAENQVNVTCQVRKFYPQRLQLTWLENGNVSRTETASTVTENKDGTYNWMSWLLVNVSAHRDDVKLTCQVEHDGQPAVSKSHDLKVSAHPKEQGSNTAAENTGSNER
T4 sequence (chain, as listed by the source limits assumed): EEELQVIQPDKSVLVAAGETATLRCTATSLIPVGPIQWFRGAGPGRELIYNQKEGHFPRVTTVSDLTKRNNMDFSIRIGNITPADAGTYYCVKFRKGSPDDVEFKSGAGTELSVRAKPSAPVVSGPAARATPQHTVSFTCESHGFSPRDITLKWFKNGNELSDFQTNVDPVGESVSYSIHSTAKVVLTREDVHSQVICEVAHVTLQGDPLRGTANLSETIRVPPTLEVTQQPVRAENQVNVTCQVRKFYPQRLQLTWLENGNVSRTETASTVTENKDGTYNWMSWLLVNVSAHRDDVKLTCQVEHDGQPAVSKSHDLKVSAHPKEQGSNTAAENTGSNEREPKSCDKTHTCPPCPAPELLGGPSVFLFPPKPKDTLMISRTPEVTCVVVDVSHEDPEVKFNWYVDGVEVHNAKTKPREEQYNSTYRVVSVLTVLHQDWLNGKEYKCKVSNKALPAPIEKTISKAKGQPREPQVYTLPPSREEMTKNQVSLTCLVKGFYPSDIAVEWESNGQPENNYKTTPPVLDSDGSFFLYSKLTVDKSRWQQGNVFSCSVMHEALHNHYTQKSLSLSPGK

| EC50 [9] [nM] | IC50 [11] [nM] | Kd [12] [nM] | koff [12] [s⁻¹] | kon [12] [M⁻¹ s⁻¹] | EC50 [14] [nM] | EC50 [15] [nM] | binding result [17] | EC50 [18] [nM] | IC50 [19] [nM] | EC50 [20] [nM] | Kd [21] [nM] | koff [21] [s⁻¹] | kon [21] [M⁻¹ s⁻¹] | Binder | binding result [16] | further results |
| --- | --- | --- | --- | --- | --- | --- | --- | --- | --- | --- | --- | --- | --- | --- | --- | --- |
| – | – | – | – | – | – | – | – | – | – | – | – | – | – | E1H10B7C7 (antibody, V domains shown) VH: QVQLVQSGAEVKKPGASVKVSCKASGYTFTSYAMQWVRQAPGQRLEWMGWIIAGNGDTKYSQNFQDRVTLTRDTSANTAYMDLSGLRSEDTAVYYCARGSGFSGYGYFDKWGQGTLVTVSS VL: DIQMTQSPSSLSASVGDRVTITCRASHSISSYLNWYQQKPGKVPKLLIYASSSLQSGVPSRFSGNGSGTDFTLIISSLQPEDFATYYCQQSHSIPLTFGGGTKVEIK | – | EC50 [1]: 0.131 nM; EC50 [2]: 0.162 nM; EC50 [3]: 0.5 nM; EC50 [4]: 0.103 nM; EC50 [5]: 0.842 nM; IC50 [6]: 0.853 nM; IC50 [7]: 2.68 nM; EC50 [8]: 0.689 nM |
| 0.27 | 0.573 | 0.824 | 0.00105 | 1.28e+06 | 0.2 | 0.179 | no binding (tested: ~67 nM) | 0.106 | 0.264 | 86.7 | 2.81 | 0.002 | 713000 | E1F1B1C3-CDRV1-IgG1 (YTE) (antibody) heavy: QVQLVQSGAEVKKPGASVKVSCKASGYTFTSNAMHWVRQVPGQGLEWMGWIKAGNAEIKYSQKFQGRVTITRDTSATTAYMELSSLRSEDTAVYYCARGDYYYYYMDVWGKGTTVTVSSASTKGPSVFPLAPSSKSTSGGTAALGCLVKDYFPEPVTVSWNSGALTSGVHTFPAVLQSSGLYSLSSVVTVPSSSLGTQTYICNVNHKPSNTKVDKKVEPKSCDKTHTCPPCPAPEAQGGPSVFLFPPKPKDTLYITREPEVTCVVVDVSHEDPEVKFNWYVDGVEVHNAKTKPREEQYNSTYRVVSVLTVLHQDWLNGKEYKCQVSNKALPAPIEKTISKAKGQPREPQVYTLPPSRDELTKNQVSLTCLVKGFYPSDIAVEWESNGQPENNYKTTPPVLDSDGSFFLYSKLTVDKSRWQQGNVFSCSVMHEALHNHYTQKSLSLSPG light: DIQVTQSPSSLSASVGDRVTITCRASQSISDFLNWYQQKPGKAPKLLIHAASSLQAGVPSRFSGSGSGTDFSLTINSLQPEDFATYYCQQSYSTPLSFGGGTKVEIKRTVAAPSVFIFPPSDEQLKSGTASVVCLLNNFYPREAKVQWKVDNALQSGNSQESVTEQDSKDSTYSLSSTLTLSKADYEKHKVYACEVTHQGLSSPVTKSFNRGEC | no binding (tested: antigen starting at 200 nM) | EC50 [10]: ~38.6 nM; Kd [13]: 651 nM; Kd [22]: 26.8 nM |
| 0.27 | 0.488 | 0.344 | 0.000402 | 1.17e+06 | 0.248 | 0.148 | no binding (tested: ~67 nM) | 0.129 | 0.27 | ~2930 | 1.17 | 0.000907 | 773000 | E1F1B1C3-CDRV1-IgG1 (antibody) heavy: not shown light: DIQVTQSPSSLSASVGDRVTITCRASQSISDFLNWYQQKPGKAPKLLIHAASSLQAGVPSRFSGSGSGTDFSLTINSLQPEDFATYYCQQSYSTPLSFGGGTKVEIKRTVAAPSVFIFPPSDEQLKSGTASVVCLLNNFYPREAKVQWKVDNALQSGNSQESVTEQDSKDSTYSLSSTLTLSKADYEKHKVYACEVTHQGLSSPVTKSFNRGEC | no binding (tested: antigen starting at 200 nM) | EC50 [23]: ~954 nM; Kd [24]: 56.7 nM |
